Experimental data as given in EP4534554A1 (Corregene Biotechnology Co., Ltd., dated 2025).
Read-outs that look alike come from different tables or passages of the source.

What was measured:
[1] = molecular target: T1, MAGE-A1 target antigen peptide … presented by HLA-A*02:01 on cells (human); experiment: cell-based or functional assay
[2] = molecular target: T1, MAGE-A1 target antigen peptide … …; experiment: cell-based or functional assay; remark: listed apart in the source

B1: ht27WT (TCR, V domains shown)
V domain 1: RGEDVEQSLFLSVREGDSSVINCTYTDSSSTYLYWYKQEPGAGLQLLTYIFSNMDMKQDQRLTVLLNKKDKHLSLRIADTQTGDSAIYFCAGSGGGTDKLIFGTGTRLQVFP
V domain 2: GAVVSQHPSWVICKSGTSVKIECRSLDFQATTMFWYRQFPKQSLMLMATSNEGSKATYEQGVEKDKFLINHASLTLSTLTVTSAHPEDSSFYICSAREPGQGPYEQYFGPGTRLTVTE
[1]
  EC50 Value (M), JKR9 reporter activation by peptide-loaded T2 cells: 2.31e-06 M
[2]
  EC50 Value (M), JKR9 reporter activation by peptide-loaded T2 cells: 1.67e-05 M
